Measurements reported in article PMC9482650, “Quantitative fragmentomics allow affinity mapping of interactomes” (Nature Communications, 2022).

Key:
Test in all cases: holdup assay
Parameters in all cases: key: below the threshold = too weak to quantify, mostly under pKd 3.1 to 4
Settings in all cases: plain residues with an end cap or a label only (N-terminal biotin on a linker: gsgsgs; C-terminal amide)
MPP2, Q14168 = target: T1, MPP2, Q14168
T1 sequence (Q14168 180-250, limits assumed, looked up): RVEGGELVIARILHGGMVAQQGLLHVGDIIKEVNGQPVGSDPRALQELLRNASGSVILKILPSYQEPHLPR

GRID2IP_2, A4D2P6 = target: GRID2IP_2, A4D2P6
GRID2IP_2, A4D2P6, sequence (A4D2P6 272-370): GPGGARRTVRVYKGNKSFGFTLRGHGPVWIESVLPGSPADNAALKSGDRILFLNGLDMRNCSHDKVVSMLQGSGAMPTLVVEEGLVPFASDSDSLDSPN

NHERF3_4, Q5T2W1 = target: T2, NHERF3_4, Q5T2W1
T2 sequence (Q5T2W1 373-468, limits assumed, looked up): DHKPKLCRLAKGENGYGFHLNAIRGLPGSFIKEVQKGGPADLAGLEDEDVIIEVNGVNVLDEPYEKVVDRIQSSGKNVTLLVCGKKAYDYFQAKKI

MAGI2_6, Q86UL8 = target: MAGI2_6, Q86UL8
MAGI2_6, Q86UL8, sequence (Q86UL8 1141-1229): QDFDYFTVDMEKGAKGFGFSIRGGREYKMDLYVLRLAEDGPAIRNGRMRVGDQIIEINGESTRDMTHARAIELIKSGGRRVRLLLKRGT

GRIP1_7, Q9Y3R0 = target: T3, GRIP1_7, Q9Y3R0
T3 sequence (Q9Y3R0 999-1096, limits assumed, looked up): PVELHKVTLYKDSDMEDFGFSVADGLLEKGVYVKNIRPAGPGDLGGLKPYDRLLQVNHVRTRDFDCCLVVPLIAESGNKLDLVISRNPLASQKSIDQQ

DLG1_2, Q12959 = target: DLG1_2, Q12959
DLG1_2, Q12959, sequence (Q12959 314-412): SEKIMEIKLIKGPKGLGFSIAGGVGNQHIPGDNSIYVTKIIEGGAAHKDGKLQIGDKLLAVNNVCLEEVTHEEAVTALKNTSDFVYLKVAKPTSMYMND

SNTG2, Q9NY99 = target: T4, SNTG2, Q9NY99
T4 sequence (Q9NY99 68-166, limits assumed, looked up): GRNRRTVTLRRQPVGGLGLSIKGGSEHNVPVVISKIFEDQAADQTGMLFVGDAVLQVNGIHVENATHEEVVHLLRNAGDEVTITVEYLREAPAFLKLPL

LNX1_3, Q8TBB1 = target: LNX1_3, Q8TBB1
LNX1_3, Q8TBB1, sequence (Q8TBB1 500-596): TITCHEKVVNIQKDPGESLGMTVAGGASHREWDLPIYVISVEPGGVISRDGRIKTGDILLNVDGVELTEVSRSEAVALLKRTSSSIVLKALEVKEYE

MAGI2_4, Q86UL8 = target: MAGI2_4, Q86UL8
MAGI2_4, Q86UL8, sequence (Q86UL8 772-865): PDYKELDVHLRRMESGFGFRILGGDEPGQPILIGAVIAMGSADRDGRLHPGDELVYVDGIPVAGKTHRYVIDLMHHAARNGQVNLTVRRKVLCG

PARD3_3, Q8TEW0 = target: PARD3_3, Q8TEW0
PARD3_3, Q8TEW0, sequence (Q8TEW0 582-685): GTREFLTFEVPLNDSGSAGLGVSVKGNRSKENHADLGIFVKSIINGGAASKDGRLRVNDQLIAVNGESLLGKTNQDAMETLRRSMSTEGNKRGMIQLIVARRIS

AHNAK1, Q09666 = target: AHNAK1, Q09666
AHNAK1, Q09666, sequence (Q09666 4-100): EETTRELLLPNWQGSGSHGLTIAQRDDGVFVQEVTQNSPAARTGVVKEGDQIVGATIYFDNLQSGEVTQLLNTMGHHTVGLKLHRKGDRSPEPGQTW

GRIP2_7, Q9C0E4 = target: GRIP2_7, Q9C0E4
GRIP2_7, Q9C0E4, sequence (Q9C0E4 934-1023): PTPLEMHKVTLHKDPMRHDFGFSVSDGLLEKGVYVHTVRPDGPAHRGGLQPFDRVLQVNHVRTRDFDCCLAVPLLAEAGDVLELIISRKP

FRMPD2_2, Q68DX3 = target: FRMPD2_2, Q68DX3
FRMPD2_2, Q68DX3, sequence (Q68DX3 944-1038): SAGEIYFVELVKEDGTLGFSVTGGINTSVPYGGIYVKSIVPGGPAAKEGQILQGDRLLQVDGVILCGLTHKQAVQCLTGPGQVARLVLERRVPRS

LIN7B, Q9HAP6 = target: T5, LIN7B, Q9HAP6
T5 sequence (Q9HAP6 88-185, limits assumed, looked up): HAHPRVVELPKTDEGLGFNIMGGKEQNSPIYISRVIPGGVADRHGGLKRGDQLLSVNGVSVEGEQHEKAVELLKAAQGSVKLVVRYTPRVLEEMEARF

LIMK2, P53671 = target: LIMK2, P53671
LIMK2, P53671, sequence (P53671 143-248): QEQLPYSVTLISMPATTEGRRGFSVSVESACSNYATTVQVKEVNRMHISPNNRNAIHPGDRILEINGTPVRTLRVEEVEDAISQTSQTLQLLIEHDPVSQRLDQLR

PTPN13_1, Q12923 = target: T6, PTPN13_1, Q12923
T6 sequence (Q12923 1088-1188, limits assumed, looked up): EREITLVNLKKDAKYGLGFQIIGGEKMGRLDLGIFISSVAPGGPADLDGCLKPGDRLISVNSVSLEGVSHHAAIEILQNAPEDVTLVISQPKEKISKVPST

DLG4_2, P78352 = target: DLG4_2, P78352
DLG4_2, P78352, sequence (P78352 155-259): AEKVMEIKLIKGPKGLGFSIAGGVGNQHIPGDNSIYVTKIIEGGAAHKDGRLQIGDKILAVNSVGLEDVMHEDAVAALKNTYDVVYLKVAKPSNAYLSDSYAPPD

DLG3_3, Q92796 = target: T7, DLG3_3, Q92796
T7 sequence (Q92796 374-475, limits assumed, looked up): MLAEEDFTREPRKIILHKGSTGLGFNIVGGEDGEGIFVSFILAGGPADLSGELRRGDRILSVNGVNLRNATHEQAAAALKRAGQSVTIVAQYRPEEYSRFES

PDZD2_2, O15018 = target: T8, PDZD2_2, O15018
T8 sequence (O15018 329-429, limits assumed, looked up): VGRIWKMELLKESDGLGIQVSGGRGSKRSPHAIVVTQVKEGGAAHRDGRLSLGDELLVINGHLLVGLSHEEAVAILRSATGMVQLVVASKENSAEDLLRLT

FRMPD4, Q14CM0 = target: FRMPD4, Q14CM0
FRMPD4, Q14CM0, sequence (Q14CM0 67-160): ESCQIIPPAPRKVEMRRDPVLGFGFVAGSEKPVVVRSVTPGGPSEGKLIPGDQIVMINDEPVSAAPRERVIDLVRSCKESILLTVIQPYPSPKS

FRMPD2_1, Q68DX3 = target: FRMPD2_1, Q68DX3
FRMPD2_1, Q68DX3, sequence (Q68DX3 770-861): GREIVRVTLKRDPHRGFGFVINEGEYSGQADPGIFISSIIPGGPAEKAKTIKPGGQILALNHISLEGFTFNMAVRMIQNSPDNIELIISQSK

MPDZ_12, O75970 = target: T9, MPDZ_12, O75970
T9 sequence (O75970 1857-1958, limits assumed, looked up): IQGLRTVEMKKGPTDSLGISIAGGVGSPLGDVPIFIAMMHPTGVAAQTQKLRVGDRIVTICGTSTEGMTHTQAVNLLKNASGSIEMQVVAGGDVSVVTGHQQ

GRIP1_4, Q9Y3R0 = target: T10, GRIP1_4, Q9Y3R0
T10 sequence (Q9Y3R0 467-571, limits assumed, looked up): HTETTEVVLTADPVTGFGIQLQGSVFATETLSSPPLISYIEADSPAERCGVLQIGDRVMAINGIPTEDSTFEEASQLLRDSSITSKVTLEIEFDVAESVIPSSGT

NOS1, P29475 = target: NOS1, P29475
NOS1, P29475, sequence (P29475 9-101): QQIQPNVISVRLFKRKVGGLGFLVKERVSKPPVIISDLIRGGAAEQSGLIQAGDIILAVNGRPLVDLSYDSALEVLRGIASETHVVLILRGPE

NHERF4_2, Q86UT5 = target: NHERF4_2, Q86UT5
NHERF4_2, Q86UT5, sequence (Q86UT5 220-308): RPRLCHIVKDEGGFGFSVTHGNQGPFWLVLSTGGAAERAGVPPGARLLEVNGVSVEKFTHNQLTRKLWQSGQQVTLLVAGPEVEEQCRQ

APBA1_2, Q02410 = target: T11, APBA1_2, Q02410
T11 sequence (Q02410 742-832, limits assumed, looked up): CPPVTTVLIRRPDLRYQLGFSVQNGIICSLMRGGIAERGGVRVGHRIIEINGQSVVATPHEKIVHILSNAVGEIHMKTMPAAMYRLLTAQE

SCRIB_3, Q14160 = target: SCRIB_3, Q14160
SCRIB_3, Q14160, sequence (Q14160 999-1103): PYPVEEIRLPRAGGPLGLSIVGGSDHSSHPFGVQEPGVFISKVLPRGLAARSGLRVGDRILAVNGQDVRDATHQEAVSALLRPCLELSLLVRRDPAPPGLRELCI

## VSVDDVRSTSQGLSSY [DFNB31_int, Q9P202]
MPP2, Q14168
  pKd: below the threshold
GRID2IP_2, A4D2P6
  pKd: below the threshold
NHERF3_4, Q5T2W1
  pKd: below the threshold
MAGI2_6, Q86UL8
  pKd: below the threshold
GRIP1_7, Q9Y3R0
  pKd: below the threshold
DLG1_2, Q12959
  pKd: below the threshold
SNTG2, Q9NY99
  pKd: below the threshold
LNX1_3, Q8TBB1
  pKd: below the threshold
MAGI2_4, Q86UL8
  pKd: below the threshold
PARD3_3, Q8TEW0
  pKd: below the threshold
AHNAK1, Q09666
  pKd: below the threshold
GRIP2_7, Q9C0E4
  pKd: below the threshold
FRMPD2_2, Q68DX3
  pKd: below the threshold
LIN7B, Q9HAP6
  pKd: 3.48
LIMK2, P53671
  pKd: below the threshold
PTPN13_1, Q12923
  pKd: below the threshold
DLG4_2, P78352
  pKd: below the threshold
DLG3_3, Q92796
  pKd: below the threshold
PDZD2_2, O15018
  pKd: below the threshold
FRMPD4, Q14CM0
  pKd: below the threshold
FRMPD2_1, Q68DX3
  pKd: below the threshold
MPDZ_12, O75970
  pKd: below the threshold
GRIP1_4, Q9Y3R0
  pKd: below the threshold
NOS1, P29475
  pKd: below the threshold
NHERF4_2, Q86UT5
  pKd: below the threshold
APBA1_2, Q02410
  pKd: below the threshold
SCRIB_3, Q14160
  pKd: below the threshold
